Experimental data taken from the Human Domainome abundance scans (Beltran et al. 2025).

B1: Far upstream element-binding protein 2, residues 142 to 214; numbered along this chain, Q92945 (parent)
chain: RTSMTEEYRVPDGMVGLIIGRGGEQINKIQQDSGCKVQISPDSGGLPERSVSLTGAPESVQKAKMMLDDIVSR

Variants of: B1
Test: abundance fitness (aPCA) (normalised: wild type 0, dead -1); higher = more abundant; growth selection in yeast, the domain comes from the species named
Settings: Homo sapiens

Abundance fitness, by site and new letter:
D32: A -0.006, M 0.019, E -0.101, L -0.005, V -0.04, W -0.243, S -0.047, Q 0.025, P -1.1, G -0.156, R -0.085, H -0.072, C -0.141, K -0.043, F -0.364, T -0.074, Y -0.167, I -0.12
C35: P -0.658, E -0.563, R -0.848, A -0.029, G -0.756, W -1.19, H -0.917, Q -0.791, L -0.787, T -0.406, F -1.15, I -0.786, V -0.209, N -0.914, M -0.866, D -0.564, K -0.545, Y -0.847
S33: G -0.861, C -0.053, H -0.854, P -1.01, R -1.06, I -0.452, D -0.916, T -0.006, V -0.714, A -0.138, W -1.09, M -0.806, F -0.474, N -0.897, L -0.575, E -0.854, Y -0.55
I39: E -0.728, C -0.172, A -0.457, D -0.515
I29: T -0.745, Y -0.971, W -0.981, V -0.185
Q30: W -0.507, K -0.181, Y -0.866, P -0.809, M 0.107, F -0.252, R -0.066, L -0.241, H -0.384, E -0.067, G -0.24, N -0.455, D -1.02, C -0.12, V -0.132, S -0.078, T -0.17, A -0.067
V37: Y -0.974, S -0.815, R -0.804, E -0.704
